Target: T1, macrophage migration inhibitory factor (MIF) (human (endogenous in MCF-7)), P14174
T1 chain: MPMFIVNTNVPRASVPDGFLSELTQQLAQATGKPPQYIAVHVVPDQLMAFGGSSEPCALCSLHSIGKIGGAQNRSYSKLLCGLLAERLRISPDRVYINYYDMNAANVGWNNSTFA
Assay: native MS; native top-down proteomics: whole cell lysates of MCF-7 and MCF-7-EGFR (EGFR-overexpressing) cells fractionated by native SEC, concentrated with molecular weight cutoff filters, direct ESI infusion FAIMS-MSn with HCD, Orbitrap detection; endogenous assemblies
Conditions: remark: other sources report otherwise

B1: macrophage migration inhibitory factor (MIF), P14174 1-115 (natural protein)
chain: T1 chain
modifications: here or on the partner: proteoforms released from the trimers: unmodified, nitrosylated at C80, acetylated at K77, truncated; phosphorylated subunits also reported (site not given); proteoforms released from the trimers: unmodified, nitrosylated at C80, acetylated at K77, truncated; phosphorylated subunits also reported (site not given)
- stoichiometry N: 3

— PMC10402242
